Assay results from US20250012721.

How the values were obtained:
[1] = target: T1, substrate peptide 1: 2Abz-GLQRALEI-Lys(Dnp)-NH2
T1 chain: GLQRALEI

[2] = target: T2, substrate peptide 2: 2Abz-SLGRKIQ-Lys(Dnp)-NH2
T2 chain: SLGRKIQ

[3] = target: T3, substrate peptide 3: 2Abz-GYLGRSYKVG-Lys(Dnp)D-OH (not fully specified)
T3 chain: GYLGRSYKVG

B1: double-stranded activated C1s protein (protein)
chain 1: EPTMYGEILSPNYPQAYPSEVEKSWDIEVPEGYGIHLYFTHLDIELSENCAYDSVQIISGDTEEGRLCGQRSSNNPHSPIVEEFQVPYNKLQVIFKSDFSNEERFTGFAAYYVATDINECTDFVDVPCSHFCNNFIGGYFCSCPPEYFLHDDMKNCGVNCSGDVFTALIGEIASPNYPKPYPENSRCEYQIRLEKGFQVVVTLRREDFDVEAADSAGNCLDSLVFVAGDRQFGPYCGHGFPGPLNIETKSNALDIIFQTDLTGQKKGWKLRYHGDPMPCPKEDTPNSVWEPAKAKYVFRDVVQITCLDGFEVVEGRVGATSFYSTCQSNGKWSNSKLKCQPVDCGIPESIENGKVEDPESTLFGSVIRYTCEEPYYYMENGGGGEYHCAGNGSWVNEVLGPELPKCVPVCGVPREPFEEKQR
chain 2: IIGGSDADIKNFPWQVFFDNPWAGGALINEYWVLTAAHVVEGNREPTMYVGSTSVQTSRLAKSKMLTPEHVFIHPGWKLLEVPEGRTNFDNDIALVRLKDPVKMGPTVSPICLPGTSSDYNLMDGDLGLISGWGRTEKRDRAVRLKAARLPVAPLRKCKEVKVEKPTADAEAYVFTPNMICAGGEKGMDSCKGDSGGAFAVQDPNDKTKFYAAGLVSWGPQCGTYGLYTRVKNYVDWIMKTMQENSTPRED
Question: What does the source list for B1?
Answer: Kcat/Km [1]: 1.67; Kcat/Km [2]: 1.45; Kcat/Km [3]: 15.4
